According to US20200239586A1 (LA TROBE UNIVERSITY, published 2020):
Like-named read-outs stand apart in the source and are kept apart here. Ends that are not written are not given here. * marks the point of attachment. Biotin = O=C1N[C@H]2[C@H](CS[C@H]2CCCCC(=O)*)N1

T1: synthetic peptide hFn14 sub-domain 2 (human, biotin on the added C-terminal lysine; disulfide bonds as in the solution structure of He et al. 2009)
T1 construct: also called sub-domain 2 peptide
T1 peptide: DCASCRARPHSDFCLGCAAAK

T2: human Fn14 (human, UniProt Q9NP84 28-129)
T2 sequence: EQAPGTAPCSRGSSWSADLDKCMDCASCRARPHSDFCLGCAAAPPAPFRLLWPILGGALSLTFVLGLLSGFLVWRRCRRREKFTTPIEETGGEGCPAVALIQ

T3: synthetic peptide hFn14 sub-domain 3 (human, cysteine pairing not given here)
T3 construct: also called sub-domain 3 peptide
T3 peptide: ASCRARPHSDFCLGK(Biotin)

T4: synthetic peptide hFn14 sub-domain 1p (human, biotin on the added C-terminal lysine)
T4 construct: synthesised by GLBiochem
T4 peptide: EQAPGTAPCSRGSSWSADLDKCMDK

T5: Histidine tagged mouse Fn14 extracellular domain (mouse, UniProt Q9CR75 28-80)
T5 construct: extracellular domain; also called mFn14; not shown: (His)6 tag from pET-15b
T5 sequence (looked up): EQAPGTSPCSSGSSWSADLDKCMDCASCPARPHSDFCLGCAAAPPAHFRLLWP

T6: synthetic peptide Sub-domain 2 Cys 3&6 ΔS (human, not fully specified; biotin on the added C-terminal lysine)
T6 construct: also called sub-domain 2 cys3&6ΔS mutant
T6 peptide: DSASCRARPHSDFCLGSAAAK


How the values were obtained:
[1] = target: T1, synthetic peptide hFn14 sub-domain 2; assay: ELISA on biotinylated sub-domain 2 peptide, mAb at 5 ng/ml
Source text: FIG. 21B is a graphical representation showing reactivity of anti-Fn14 mAbs CRCBT-06-001, CRCBT-06-002, CRCBT-06-003, CRCBT-06-004, CRCBT-06-005, CRCBT-06-006, CRCBT-06-007 and ITEM-1 with a synthetic peptide representing sub-domain 2 of Fn14. Plates were coated with sub-domain 2 peptide and various dilutions of antibody were allowed to bind, bound antibody was detected with anti-mouse HRP and TMB substrate. The average of duplicate readings are plotted, error bars represent standard deviations. The ELISA was repeated to ensure consistent results. The vertical line at 5 ng/ml within the linear part of the curves is the point at which a comparison of the reactivity of each mAb was analyzed.
(§1) Peptides representing sub-domains 1p, 2 and 3 of hFn14 (FIG. 20, Panels B and C and FIG. 14, Panel A) and for disulfide pair mutants (Cys3&6ΔS and Cys4&5ΔS; FIG. 20 Panels D and E) were synthesized by GLBiochem Ltd. (Shanghai, China) and the cysteine residues for disulfide bonds were chosen as described in the solution structure by He et al., (2009). An additional lysine residue was added to the C-terminus in order to attach a biotin moiety and to enable the peptides to bind to neutravidin coated plates (Pre-blocked; Pierce). For these experiments, a control peptide with a biotin at the C-terminus was used as a negative control and isotype control antibodies were also used.
The ELISA was performed essentially according to the manufacturer's recommended protocol (Pierce). Briefly, peptide was coated onto wells (in duplicate) at 1-10 μg/ml for 2 hours at room temperature. Wells were washed in PBS/0.05% Tween 20/0.1% BSA 3 times and dilutions of each antibody were added in wash buffer for 1 hour with gentle agitation. After another three washes anti-mouse HRP-conjugated to horse radish peroxidase (HRP; Chemicon) was added at 1/1000 dilution for 1 hour shaking. […] Optical density at 450 nm was quantified using a Spectromax absorbance spectrophotometer.

[2] = target: T2, human Fn14; assay: cell-based or functional assay
[3] = target: T3, synthetic peptide hFn14 sub-domain 3; assay: ELISA on biotinylated sub-domain 3 peptide, mAb at 0.2 ug/ml
Protocol: An additional lysine residue was added to the C-terminus in order to attach a biotin moiety and to enable the peptides to bind to neutravidin coated plates (Pre-blocked; Pierce). For these experiments, a control peptide with a biotin at the C-terminus was used as a negative control and isotype control antibodies were also used.
(§2) The ELISA was performed essentially according to the manufacturer's recommended protocol (Pierce). Briefly, peptide was coated onto wells (in duplicate) at 1-10 μg/ml for 2 hours at room temperature. Wells were washed in PBS/0.05% Tween 20/0.1% BSA 3 times and dilutions of each antibody were added in wash buffer for 1 hour with gentle agitation. After another three washes anti-mouse HRP-conjugated to horse radish peroxidase (HRP; Chemicon) was added at 1/1000 dilution for 1 hour shaking. Finally, after 4 further washes the plate was developed using TMB (3,3′,5,5′-tetramethylbenzidine) substrate (Pierce), and the reaction was stopped using 2M H2SO4 solution. Optical density at 450 nm was quantified using a Spectromax absorbance spectrophotometer.
The reactivity of CRCBT-06-001 CRCBT-06-002, CRCBT-06-003, CRCBT-06-004, CRCBT-06-005, CRCBT-06-006 and CRCBT-06-007 with sub-domain 3 was lower than for sub-domain 2, indicating this region may be a partial epitope for these antibodies. However, the differences in binding to this region could reveal subtle variations in the contact regions of the antibodies with hFn14. The order of binding from strongest to weakest was CRCBT-06-005, CRCBT-06-002, CRCBT-06-001, CRCBT-06-006, CRCBT-06-007 and ITEM-1. The relative binding of each antibody to sub-domain 3 at a single point in the linear region of the curves was measured at 0.2 µg/ml (FIG. 21C). […] This could indicate the epitope of ITEM-1 may differ slightly to the CRCBT antibodies based on weaker interaction with surface exposed residues in sub-domain 3.

[4] = target: T2, human Fn14; assay: cell-based or functional assay; remark: listed apart in the source
[5] = target: T7, phage-displayed hFn14 extracellular domain (human, UniProt Q9NP84 28-77); assay: phage ELISA, antibody on plate, 10-fold phage dilutions
T7 construct: also called FN14 Ectodomain; FN14 Ecto
Protocol: Each normalized preparation was 10-fold serially diluted and added in solution to the MAbs attached to the solid phase. ELISAs shown here were performed simultaneously with the same preparations of phage. Binding was detected using HRP-conjugated anti-M13 phage polyclonal IgG and TMB substrate. Optical density at 450 nm was quantified using a Spectramax spectrophotometer. Error bars for each dilution represent the standard deviation of duplicate assays. […] ELISAs were performed under similar conditions to those described for Panel A. Methods according to Epitope mapping using phage expressed Fn14—Method 1.
The wells of Maxisorp immunoplates (Nunc) were coated overnight at 4° C. with the target monoclonal antibodies or recombinant Tweak-Fc at a concentration of 2 μg/mL in PBS. MAb 5G8 was used as a negative control for ELISA plates coated with tested antibodies. Recombinant Fc alone was used as a negative control for ELISA plates coated with recombinant Tweak-Fc. […] 10-fold serial dilutions of phage were made using 5% skim milk/PBS solution in 2 ml-well microtiter plates and phage dilutions were added to the coated, blocked ELISA plates for 1 hr, with vigorous shaking at room temperature. Phage were subsequently removed from the wells and the ELISA plates were washed 4× with PBS/0.05% Tween 20. […]

[6] = target: T4, synthetic peptide hFn14 sub-domain 1p; assay: ELISA on biotinylated synthetic peptide
Protocol: as §1, §2

[7] = target: T8, Histidine tagged hFn14 extracellular domain, bacterially expressed (human, UniProt Q9NP84 28-77); assay: ELISA on coated His-tagged protein
T8 construct: also called recombinant Fn14; recombinant human Fn14; not shown: (His)6 tag from pET-15b

[8] = target: T9, His tagged hFn14 extracellular region mutant R56A (human, UniProt Q9NP84 28-77); assay: ELISA with purified His-tagged hFn14 R56A; x axis 'Log (c)' without unit, µg/ml by the legend
T9 construct: not shown: (His)6 tag

[9] = target: T5, Histidine tagged mouse Fn14 …; assay: ELISA with purified His-tagged mouse Fn14; x axis 'Log (c)' without unit, µg/ml by the legend
[10] = target: T10, His tagged hFn14 extracellular region mutant R56K (human, UniProt Q9NP84 28-77); assay: ELISA with purified His-tagged hFn14 R56K; x axis 'Log (c)' without unit, µg/ml by the legend
T10 construct: not shown: (His)6 tag

[11] = target: T7, phage-displayed hFn14 extracellular …; assay: phage ELISA, antibody on plate, 10-fold phage dilutions; remark: listed apart in the source
Protocol: Each normalized preparation was 10-fold serially diluted and added in solution to the MAbs attached to the solid phase. All ELISAs shown were performed simultaneously with the same preparations of phage. Binding was detected using HRP-conjugated anti-M13 phage polyclonal IgG and TMB substrate. Optical density at 450 nm was quantified using a Spectramax spectrophotometer. Error bars for each dilution represent the standard deviation of duplicate assays. In this figure, reference to “FN14 Ecto” is a reference to the extracellular domain of hFn14. Methods according to Epitope mapping using phage expressed Fn14—Method 1.
The wells of Maxisorp immunoplates (Nunc) were coated overnight at 4° C. with the target monoclonal antibodies or recombinant Tweak-Fc at a concentration of 2 μg/mL in PBS. MAb 5G8 was used as a negative control for ELISA plates coated with tested antibodies. Recombinant Fc alone was used as a negative control for ELISA plates coated with recombinant Tweak-Fc. […] 10-fold serial dilutions of phage were made using 5% skim milk/PBS solution in 2 ml-well microtiter plates and phage dilutions were added to the coated, blocked ELISA plates for 1 hr, with vigorous shaking at room temperature. […] Optical density at 450 nm was quantified using a Spectramax absorbance spectrophotometer.

[12] = target: T11, His tagged hFn14 extracellular region mutant R56P (human, UniProt Q9NP84 28-77); assay: ELISA with purified His-tagged hFn14 R56P; x axis 'Log (c)' without unit, µg/ml by the legend
T11 construct: also called R56P mutant; not shown: (His)6 tag

[13] = target: T6, synthetic peptide Sub-domain 2 Cys 3&6 …; assay: peptide ELISA: biotinylated synthetic peptide on neutravidin plate, antibody titrated (legend: 0.1-0.0001 µg/ml; axis 'Log (c)'), anti-mouse HRP, TMB, OD 450 nm

% decrease in binding compared to CRCBT-06-001 and CRCBT-06-002 [1] [%] | % Agonist, IL-8 secretion by A375 cells [2] [%] | % Antagonist, IL-8 secretion by A375 cells [2] [%] | % decrease in binding compared with CRCBT-06-005 [3] [%] | NFκB-GFP reporter in HEK293T cells [4] [µg/mL] | binding result [5] | binding result [6] | binding result [7] | binding result [8] | binding result [9] | binding result [10] | binding result [11] | binding result [12] | binding result [13] | Binder
48 | 16 | 89 | 73 | 1 | binds | no binding | – | – | – | – | – | – | – | CRCBT-06-007 (antibody, IgG2b, V domains shown) VH: QVKLEESGGVLVQPGGSMKLSCIASGFSFSKYWMNWVRQSPEKGLEWVAEIRVKSNNYATHYAESVKGRFIISRDDSKSSVYLQMNNLRAEDTGIYYCTKSYADYFDYWGQGTTLTVSS VL: DIVMTQSTASLAVSLGQRATISCRASQSVSTSSYSYMHWYQQKPGQPPKVLIKYASNLESGVPARFSGSGSGTDFTLNIHPVEEEDAATYYCQHSWEIPYTFGGGTKLEIKR
40 | 26 | 92 | – | 1 | – | no binding | binds | binds | binds | binds | binds | binds | binds | CRCBT-06-005 (antibody, IgG2b, V domains shown) VH: QVQLQESGGGLVQPGGSMKLSCVASGFTFSYYWMNWVRQSPEQGLEWIAEIRLQSNDYPTHYAESVKGRFTISRDDSKNSVYLQMNNLRPEDTGIYYCACRYADYFDHWGQGTTLTVSS VL: DIVLTQTTASLTVSLGQRATISCRASQSVSTSTYSYMHWYQQTPGQPPTVLIKYASSLESGVPTRFSGSGSGTDFTLNIHPVEEEDTATYYCQHSWEIPYTFGGGTKLEIKR
76 | 106 | – | 73 | 1 | – | no binding | – | – | – | – | binds | – | – | CRCBT-06-006 (antibody, IgG2a, V domains shown) VH: QVQLQESGGGLVQPGGSMKLSCVASGFTFSYYWMNWVRQSPEQGLEWIAEIRLQSNDYPTHYAESVKGRFTISRDDSKNSVYLQMNNLRPEDTGIYYCACRYADYFDHWGQGTTLTVSS VL: DIVITQSPASLTVSLGQRATISCRASQSVSTSTYSYMHWYQQTPGQPPTVLIKYASSLESGVPTRFSGSGSGTDFTLNIHPVEEEDTATYYCQHSWEIPYTFGGGTKLEIKR
